Literature values in patent US11963996B2, “Method of treating knee pain” (ORTHOTROPHIX, Inc., priority 2018, dated 2024).

Tests used:
OA patients = conditions: human, in vivo; cited from earlier work
[1] = tested on: human osteoblastic mesenchymal stem cells; conditions: cited from earlier work
subjects with knee OA = conditions: vs placebo, cited from earlier work

## N#Cc1c(N(CC(=O)[O-])CC(=O)[O-])sc(C(=O)[O-])c1CC(=O)[O-].[Sr+2].[Sr+2] [strontium ranelate]
OA patients
  Risk of myocardial infarction: increase the risk of myocardial infarction

## rat orthologue: TPX-100 orthologue PDLLVRGDNDVPPFSGDGQHFMH (Rat/Mouse)
[1]
  Tritium-thymidine incorporation: promote tritium-thymidine incorporation

B1: FGF-18: Fibroblast Growth Factor-18, a.k.a. Sprifermin, candidate DMOAD, a putative chondrocyte growth factor (protein, UniProt O76093 28-207, looked up)
Fibroblast growth factor 18: EENVDFRIHVENQTRARDDVSRKQLRLYQLYSRTSGKHIQVLGRRISARGEDGDKYAQLLVETDTFGSQVRIKGKETEFYLCMNRKGKLVGKPDGTSKECVFIEKVLENNYTALMSAKYSGWYVGFTKKGRPRKGPKTRENQQDVHFMKRYPKGQPELQKPFKYTTVTKRSRRIRPTHPA
modifications: sprifermin
notes: Fibroblast Growth Factor-18, a.k.a; Sprifermin, candidate DMOAD, a putative chondrocyte growth factor
Subjects with knee OA; 24 months
  Clinical benefit (WOMAC): no difference in clinical benefit was detected in any treatment group when compared with placebo
Subjects with knee OA; 36 months
  Clinical benefit: failed to demonstrate clinical benefit compared with the placebo-treated group
Subjects with knee OA; three once-weekly IA injections, repeated at months 6, 12, 18, 24 months
  Tibiofemoral cartilage thickness by MRI: dose-dependent increases in tibiofemoral cartilage thickness compared with the placebo group
